Data on 3 substances can be found in patent US20150315289A1.

What is called Kd is the equilibrium constant for the complex coming apart. Lower therefore signals higher affinity. For orientation: EC50 means the concentration that produces a half-maximal response. Higher therefore signals lower potency in that assay.

The target of experiment [1] is human MUC5AC (native mucin) (human) (UniProt P98088). Briefly: inhibition EIA on CPM1-coated plates; competitor hPAM4 at […].
Experiment [2] shares this target. Briefly: sandwich EIA: hPAM4 capture of antigen from CPM1, murine MAb probe at 10 µg/mL.
The target is the same in experiment [3]. Briefly: ELISA on target mucin antigen. (An ELISA detects its analyte on a solid surface through an enzyme-linked reagent.)
Experiment [4] has the same target. The experiment in a line: binding of radioiodinated TF10 to MUC5AC (not shown).
The target is the same in experiment [5]. Briefly: elution analysis of 111In-IMP-288/TF10 with excess mucin.
Experiment [6] deals with IMP-288 di-HSG hapten-peptide. Briefly: elution analysis of radiolabeled peptide with TF10 (not shown).

“45M1 anti-MUC5AC mouse monoclonal antibody” displayed an ICmax (maximal inhibition) in experiment [1] of 25.5%. Moreover, the Kd in experiment [2] is 14.3 µg/mL.
For PAM4-F(ab′)2, the EC50 in experiment [3] stood at 1.83 nM.
In turn, “TF10 bispecific ([hPAM4]2 x h679) DNL construct (bispecific antibody)” displayed an immunoreactive fraction in experiment [4] of 87%. The substance further registered a percent of TF10-bound 111In-IMP-288 eluting at higher molecular weight with excess mucin in experiment [5] of 92%. The substance further gave a percent of 111In-IMP-288 bound in experiment [6] of 90%.
